Results on two compounds are retold here after US20050208103A1, “Targeted transscleral controlled release drug delivery to the retina and choroid” (priority 1999, published 2005).

Data set [1] is classed as in vitro ADME, rabbit. The following applies: not told. How it is done:
Dutch-belted rabbits (Pine Acres Rabbitry, Vermont, Mass.), each weighing 2-3 kg, were anesthetized with intramuscular 40 mg/kg ketamine (Abbott, N. Chicago, Ill.) and 10 mg/kg xylazine (Bayer, Shawnee Mission, Kans.). Scleral thickness was measured using a RK-5000 ultrasound pachymeter (KMI Surgical Products, West Chester, Pa.). The eyes were enucleated immediately […] sacrifice and immersed in Unisol (Alcon, Ft. Worth, Tex.) for 10 minutes or less. The adherent muscles were excised and episcleral tissue was removed with a sterile gauze sponge. Areas free of nerve and vessel emissaries were used to obtain 7×12 mm slices of sclera under microscopic caliper guidance. Each piece of sclera was used on the day of isolation.
A 5×10 mm window, 2 mm from the bottom, was created on one face of a spectrophotometry polystyrene cuvette (Sigma, St. Louis, Mo.) using a Bridgeport vertical milling machine (Bridgeport, Bridgeport, Conn.), and a piece of sclera was blotted dry and placed over this window without stretching so as not to induce asymmetric stresses. A small amount of cyanoacrylate tissue adhesive (Ellman International, Hewlett, N.Y.) was applied to the entire boundary of the tissue rim to seal its cut surface to the cuvette and prevent leakage around the sclera, and a second identical cuvette was aligned with the first cuvette and glued in place over the tissue. After the glue polymerized, within 3 to 4 minutes, the cuvette facing the “orbital” surface of the sclera was filled with Unisol. The apparatus was discarded if leakage into the “uveal” chamber was observed. Unisol was replaced with diffusion medium (see below) and the apparatus was incubated at 37° C. in 5% CO2 atmosphere for 1 hour to restore normal hydration and temperature.
Hanks' balanced salt solution without phenol red, containing 1% glutamine-penicillin and streptomycin, tetracycline (48 μg/ml), and aprotinin (1.5 μg/ml) (all from Sigma), was used as the diffusion medium. Tetracycline and aprotinin were excluded from the medium for certain experiments with FITC-BSA to evaluate the effect of these proteolysis inhibitors on scleral permeability. The pH of all solutions ranged from 7.41 to 7.45.
Fluorescein isothiocyanate (FITC) conjugated dextrans ranging in molecular weight from 4 kDa to 150 kDa, FITC-bovine serum albumin (BSA), FITC-rabbit IgG (all from Sigma), rhodamine-conjugated dextran of molecular weight 70 kDa (Molecular Probes, Eugene, Oreg.), and sodium fluorescein (Akorn, Abita Springs, La.) were studied. At least 5 experiments were performed on each compound. […] Samples were protected from light at all times before fluorescence measurements. […]

The conditions of data set [2]: Stokes-Einstein radius; cited from earlier work.
The nature of data set [3]: Protein precipitation with trichloroacetic acid to test FITC linkage. Also on record: species or system rabbit. The note with it: supernatant fluorescence.

`O=C([O-])c1ccccc1-c1c2ccc(=O)cc-2oc2cc([O-])ccc12.[Na+].[Na+]` [Sodium fluorescein, sodium fluorescein]: in data set [1], the Permeability coefficient was 76.3±24.1 ×10^−6 cm/s and the “Permeability coefficient (mean ± sd)” value was 84.5±16.1 ×10^−6 cm/s. Further, the Molecular radius in data set [2] was 0.5 nm.

With “FITC-BSA: Fluorescein isothiocyanate conjugated bovine serum albumin (Sigma)”, in data set [1], the Permeability coefficient was 5.21±1.85 ×10^−6 cm/s and the “Permeability coefficient (mean ± sd)” value was 5.49±2.12 ×10^−6 cm/s. The Molecular radius in data set [2] is reported as 3.62 nm. The “dissociation of the FITC conjugate after diffusion through sclera” value in data set [3] is listed as “no significant dissociation”.
